Consider two molecules from patent US20180362604A1 (SHIRE HUMAN GENETIC THERAPIES, published 2018).

Usually Kd stands for the concentration at which binding is half-saturated.

Test [1] concerns the target T1, Myostatin (UniProt O14793 267-375).
T1 sequence (looked up): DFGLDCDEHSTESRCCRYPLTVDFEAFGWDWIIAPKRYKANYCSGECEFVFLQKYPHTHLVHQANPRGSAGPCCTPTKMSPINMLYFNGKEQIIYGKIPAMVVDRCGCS
Kind of test: cell-based or functional assay.

The target in test [2] is T2, Activin A (UniProt P08476 311-426).
T2 sequence (looked up): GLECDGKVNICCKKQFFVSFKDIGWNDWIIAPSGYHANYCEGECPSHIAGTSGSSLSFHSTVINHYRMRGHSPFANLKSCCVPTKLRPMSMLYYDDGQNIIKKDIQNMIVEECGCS
Kind of test: cell-based or functional assay.

The target of test [3] is T1, Myostatin. Kind of test: surface plasmon resonance. A general note: In SPR one partner is held on a chip, and binding of the other changes the refractive index at the surface.
The target in test [4] is T2, Activin A. Description: surface plasmon resonance.
Test [5] addresses T1, Myostatin. Description: SPR (BIAcore), myostatin as analyte.

B1: ActRIIB-Fc (Fc fusion, UniProt Q13705 19-134, looked up, not shown: a dimerising Fc or GST)
chain: SGRGEAETRECIYYNANWELERTNQSGLERCEGEQDKRLHCYASWRNSSGTIELVKKGCWLDDFNCYDRQECVATEENPQVYFCCCEGNFCNERFTHLPEAGGPEVTYEPPPTAPT
For the molecule B1, in the test with Myostatin [1], the “Myostatin IC50, cell-based assay for SMAD pathway (A204 luciferase reporter)” value worked out at 0.5 nM. The “Activin A IC50, cell-based assay for SMAD pathway (A204 luciferase reporter)” value with Activin A [2] is 0.5 nM.

B2: FS315K(76,81,82)E-mFc (Fc fusion)
chain: GNCWLRQAKNGRCQVLYKTELSKEECCSTGRLSTSWTEEDVNDNTLFKWMIFNGGAPNCIPCKETCENVDCGPGKECRMNEENKPRCVCAPDCSNITWKGPVCGLDGKTYRNECALLKARCKEQPELEVQYQGRCKKTCRDVFCPGSSTCVVDQTNNAYCVTCNRICPEPASSEQYLCGNDGVTYSSACHLRKATCLLGRSIGLAYEGKCIKAKSCEDIQCTGGKKCLWDFKVGRGRCSLCDELCPDSKSDEPVCASDNATYASECAMKEAACSSGVLLEVKHSGSCNSISEDTEEEEEDEDQDYSFPISSILEW
notes: K76, K81, K82 to glutamic acid, fused with murine Fc; also called FS-EEE-mFc; not shown: murine Fc (mFc)
Regarding B2, the results for the Kd with Myostatin [3], in the test with Activin A [4] and in the test with Myostatin [5] were 0.0075 nM, 0.0061 nM and 0.0148 nM, respectively. In the test with Myostatin [1], the “Myostatin IC50, cell-based assay for SMAD pathway (A204 luciferase reporter)” value is 0.7 nM. The “Activin A IC50, cell-based assay for SMAD pathway (A204 luciferase reporter)” value with Activin A [2] came out at 0.8 nM.
